Measured values as given in PMC4800742.

Target: T1, RanGAP1 (human, UniProt P46060 1-587)
T1 sequence: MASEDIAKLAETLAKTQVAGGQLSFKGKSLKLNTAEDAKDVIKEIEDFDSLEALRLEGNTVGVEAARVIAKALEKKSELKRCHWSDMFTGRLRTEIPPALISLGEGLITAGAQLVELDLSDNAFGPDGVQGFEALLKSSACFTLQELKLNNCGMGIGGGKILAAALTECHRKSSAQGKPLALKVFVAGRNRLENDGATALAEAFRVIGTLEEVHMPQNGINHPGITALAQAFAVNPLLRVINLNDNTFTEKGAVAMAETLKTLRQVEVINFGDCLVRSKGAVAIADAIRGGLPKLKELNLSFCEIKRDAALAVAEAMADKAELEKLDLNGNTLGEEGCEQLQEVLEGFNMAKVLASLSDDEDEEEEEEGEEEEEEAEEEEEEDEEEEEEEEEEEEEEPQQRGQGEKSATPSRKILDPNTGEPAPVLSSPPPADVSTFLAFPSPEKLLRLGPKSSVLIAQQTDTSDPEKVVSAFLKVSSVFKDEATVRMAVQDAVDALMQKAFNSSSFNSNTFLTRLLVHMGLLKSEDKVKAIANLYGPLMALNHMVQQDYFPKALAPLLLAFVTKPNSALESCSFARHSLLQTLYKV
Assay: EMSA

GGGGCCGGGGCCGGGGCCGGGGCC (structured_RNA) [(G4C2)4 G-quadruplex]
apparent K (half saturation): 162 nM
